Assay: soluble on expression in E. coli; label from the status in PepcDB or PDB records

| Sequence | soluble on expression in E. coli |
| --- | --- |
| GMSQTTVVNGVNVDQLMATIEQIKAKPEIAQFKFRATNQWMGGTHNQATIKDFYGACAEDDTRKPMVFDLDEPPVLLGENRGANPVEYLLVALSGCLTTSLVAHAAARGIALRGVKSRYEGDIDLRGFLGLSEEVPVGYREIRVFFSIDADLTDGQKEELIRMAQKYSPVYNTVAKPVPVAVLLDRG | soluble |
| GMSSSGTSITCEVGLQLIVPDRAPVPLVARLDYSVDDPYAIRAAFHVGDDEPVEWIFARELLTVGIIRETGEGDVRIWPSQDGKERMVNIALSSPFGQARFHAQVAPLSEFLHRTYELVPAGQESDYIDIDAEIAEHLS | soluble |
| GMTDQSVRIIEAALRLYMKKPPHEVSIEEIAREAKVSKSLIFYHFESKQKLLEEAVMHAFRKMMEEFNPRSVEEVVDYGIGFIAERREFIEFMMYALSQVRIEELERMFGEALEKVASLFEGCRHPRETAIALMAMLDGLSIYSLYFDLGKLEKYREIAMEFVESRRVRA | soluble |
| GMVKDKNDVGPKTVAILGAGGKMGARITRKIHDSAHHLAAIEIAPEGRDRLQGMGIPLTDGDGWIDEADVVVLALPDNIIEKVAEDIVPRVRPGTIVLILDAAAPYAGVMPERADITYFIGHPCHPPLFNDETDPAARTDYHGGIAKQAIVCALMQGPEEHYAIGADICETMWSPVTRTHRVTTEQLAILEPGLSEMVAMPFVETMVHAVDECADRYGIDRQAALDFMIGHLNVEIAMWFGYSPKVPSDAALRLMEFAKDIVVKEDWREALNPAKVKQAAELIAGK | soluble |
| GMVTTRKPLRAAIIGLGRLGERHARHLVNKIQGVKLVAACALDSNQLEWAKNELGVETTYTNYKDMIDTENIDAIFIVAPTPFHPEMTIYAMNAGLNVFCEKPLGLDFNEVDEMAKVIKSHPNQIFQSGFMRRYDDSYRYAKKIVDNGDIGKIIYMRGYGIDPISGMESFTKFATEADSGGIFVDMNIHDIDLIRWFTGQDPVQAYGLTSNIAAPQLADIGEFETGVAQLKMSDGVIATLIGGRHAAHGNQVELEVMGSNGWVRIGEHPDLNRVTVFNDQGVVRPSLQSFGERFDTAFTDEVQDFVNNVIVGKQPEVTVDDGIKALKIAKACQQSANIGKLVDIQL | soluble |
| GNSITSATDEQPHIGNYRLQKTIGKGNFAKVKLARHVLTGREVAVKIIDKTQLNPTSLQKLFREVRIMKILNHPNIVKLFEVIETEKTLYLVMEYASGGEVFDYLVAHGRMKEKEARAKFRQIVSAVQYCHQKYIVHRDLKAENLLLDGDMNIKIADFGFSNEFTVGNKLDTFCGSPPYAAPELFQGKKYDGPEVDVWSLGVILYTLVSGSLPFDGQNLKELRERVLRGKYRIPFYMSTDCENLLKKLLVLNPIKRGSLEQIMKDRWMNVGHEEEELKPYTEPDPDFNDTKRIDIMVTMGFARDEINDALINQKYDEVMATYILLGRK | soluble |
| GPDFNWTSVLNLTHNRNKIVALDGDIKQSVEGSWFIHKIGLPYNSFYVKEFAGVDPSTGKGLYYLNTQDEKGNYNREMTDDASKAQAIPYKSADPKISGGFTNILSYKWFDLGLTFTYSLGGYSFDKTGTLIETDGSKEKSYNLPVYALDRWQKPGDRTDVPRFVLEQGAGPQNSSRYIHSTDHIRLKNLTLGFTLPGRWVQKALIENARVYFSGSNLLTWAKWKQYDPEVPVNGEVFCEAPPMRTFNFGVEITF | not soluble |
| GPGSMADSNPTKEGTSSAPLHPLKDKWFVFYIPASKGNEYEHETKELGYVSTIEEVYSTINTLPPITLLPNDDNLVFSRNKIEPQFESFPGGMRFSIFCKTKTQCREALTYVVAVVLGEAIGRDACKGECVCDIVRIGHKGSAMYKESVRIEVWAHQSPYNTAMEKYLVSTLSAIPGITVSARPFK | soluble |
| GPGSMARNKIALIGSGMIGGTLAHLAGLKELGDVVLFDIAEGTPQGKGLDIAESSPVDGFDAKFTGANDYAAIEGADVVIVTAGVPRKPGMSRDDLLGINLKVMEQVGAGIKKYAPEAFVICITNPLDAMVWALQKFSGLPAHKVVGMAGVLDSARFRYFLSEEFNVSVEDVTVFVLGGHGDSMVPLARYSTVAGIPLPDLVKMGWTSQDKLDKIIQRTRDGGAEIVGLLKTGSAFYAPAASAIQMAESYLKDKKRVLPVAAQLSGQYGVKDMYVGVPTVIGANGVERIIEIDLDKDEKAQFDKSVASVAGLCEACIGIAPSLK | soluble |
| GPGSMASKKGGKKANGEDLEAAILRWFECEGEPATVQSLTDALGSKFGKQLVQNTLEQCLKEQKLLAKDIKKARFYFLASPAPGSNDEGSDVGSHKIDIVKQLRQLRNGVSMLSSELSVLLQAQTSSKRATTIASLVSECAALRSRLQALHVIAGKESSCVSDDVSLLIHRYKRARELWRDRKRITVCVIDAVLGDSCGPQELEDIFGLSTDEQMNLCLSGTALTLPATVSS | not soluble |
| GPGSMDGRNGSKRARSEPANGPNQSNVGTSGVEEPHVEEVPARDPELERQLDRLNIDDNLKESLRGLSPSTRGEVMNDIIRSETIERASSLMEQANLLSLIELRRLPELMEEGMSSQHYRADVDDDSELHEFGQALEDMQADGQSPSPQRGRPHGMLHTPGPLILEFLRAFAAGTHAAFADAAGVSEHLNILSELAAQRAMGVTEDVDNMSYEELLELEDKIGYVSRGVKPEDVQKCVKDVPTPHEGNCVVCQCEWSDNAETAPAVVELNRCKHVFHRTCIREWLLKNKKCPVCTQEVV | soluble |
| GPGSMEDYKAKGNDAFKAKRYQEAIDWYTKAIELDPNGEASGALYSNRAGSWQNLNNFEKAAADSEQCIRLRPDWLKGYFRLGVAMESMVKYDEAQKAFQKALQLSPGNEEVMDKLHAINTKVRERNEKTKSQQCKTPEEAKQLGNSFFKDGKYDQAAEFYTRAIELQTEPVKEKAVYYTNRAACHQQTHMYSLMVDDCNAAIEIDPANVKAYLRRGIAYEGMEKWKLALEDYTKAQSISPGVAGASQGILRCQRVLRS | soluble |
| GPGSMEFIMNSVYAIDPIYLLMSAVAQQMLAMAWFDCIVGQIDRYYVAADKGVRRVEHAITRYPGIMVSATTFACSLLRSLVVLTVVSMCNCSTLYQYQSAAMVAVMIGMMRVHRTFSCHRPIQIFVTETGYEMAAAMTAAVVCYYMKKYNF | soluble |
| GPGSMFYPNSPQTSPQLTQIPYGQQYAMMQRQIQQPYHPFATTEPQARLYPYHYQGPIQQEQGGFITQQSTAASPQYVQMRVTPVDQSIMSGYPNQTANGSSSSSFNYNIHPQQQQQQQQQQQLRHHAMPVGSVPLQDDRYRKQLIVNYLAPDVTSTDLHELFSRFGELDGARIIYDKQTNMSKGYGFVYFCHAEDAKEAVERMSGYEFHGKWLKVGYSTNPLNIVPSNSSPYVHAGSRGAAG | not soluble |
| GPGSMGQSIGDRLQNLVLRDEERARLLSLQNTKSILPSLAPSRRLLLVHAIMTLVVPYVTRKVQRKVLEEGWEREPVPTARYRIAKALRYAVVTWSLLSLANTFNFLMTGRYRTLVERILSLRLVYGSQRMMRFTNLLYMNQHVQWQTWMSLFSALSLGR | not soluble |
| GPGSMGRNKKSKATAHAQACSDGEREEEHGAVPTTTLPARAEGCEEENGASAAAADGAQGTPDHHSGRCSERGRDSDDDAPKTKKEYRGNRLKKLEVQRKKGKGKGANEDDKAEEAAREGDAHEEPLVVTRQRAVEVLYCPICTFPAEMCEFSGIVEKCRPWLLEHAADLADAEERGRKRRILTEKDRLEAMLEGRGVKKALERIVVLEVEKRTGRRMITSVFGMDLFGFNLKDVSRDWRKRFSCGAGVRAAEEGKHQDCIDIQGNVVDQLADMLITKYKIPKESVYLMEGKKKVPYPY | not soluble |
| GPGSMISLDAYVRYVYQYSSPTTTEHLRQTVWGPLGLCSGASASPKPISGAQPCWRDASVSHEVLYAVPPITTNVRCVGSRIDAHLTDLLEALPLSSPTVPPTTPAAATLASRFARPSRLATIGLPFCLCVKPQTEHLTPWSLLCTSSSSPTDASNPEMNRKQPSRPLVLVVDTGAAEAVLRGSDLYAPGIVTASRPFHAGERAVVAFYVERVAGTGDEAQNGSAEAPCRLVCALPTGATLSAEQFEPLDMDVDYQDKHQQVDMLAGRSTFLVCIGSGVTCMEWKTVMSRSVHGTALRMEWTPQGQPSRATLRALLGITKGTEDSNARSSTPLPQPPSSGVEEGEERAADVFFLQNYSSMVPVALLVQHLSPAALRRAWTHSDDADQGRSPVPCTILDACAAPGGKTSLLLSLLQERAEQERTAMAEAAIPLPSATVATEPFRVVCCERSRPRQEQLMSLLHRHFASHLAAPSASPSLNSTPAVDVPYVTRVLESRCVDTNKFLKRKLTEAAGSSDGSAASHTASFDAVLLDPPCTGMGLRPKLMPHVQSIASIQRSADYQRKLFDSCIRHIRGSPTSPGVIVYSTCTTTLEENEANVLHFLCTYPSVRLARARTAAQRALCGLSTVRSYGAQHDTDGSHGSTCLCSCLLRNEITEVQLAKERAAAAEGLSSTDPLLLLRFMPRPLDIYDDISEDGVGFFVAVFLCSGYTDA | not soluble |
| GPGSMKNISNKRIIKDLKLLLEEVDANNEANSSGSPHSAAIFSVHTDTIYNWILKVKAPADSVYGGAGNTYQLSVLFSEDYPHEPPTVRFVTPVYSPLVTEEGGICDRMVNDVWTPDQRASDVIKLVLDRVFSQYKNHSDDDVNPEARHYLEKFPQEFAARVRRGG | soluble |
| GPGSMLGGRHFQRKYEKKQKKKEAKKASQGPLRGAGGSSGVRAAVAAAAGAAVKRKDGSTLKGPVVSHGDFMASRDSANNRKNVPFSSKMEEKVYRKEHRVPKYNSIVDPERQNLAKAAGASSAAQRRRVLRQKGGDDLLDHFRERLNASTFRLLNEQVYNAPTTLASRLLREEATFRDYHTGYHQQLMQWPINPNKLIVESLLGDRRGRFLANKGKSMPGHIPPSWVVADMGCGEAQIAAALKPKGYTVHSFDFFALNSLVTVADTTKVPLADNHVDVCVFSLSLMATDYVKSLFEAFRVLKPKRLLKIIEVRSRVPFPRKFAELVEDIGFDVDYSDVAGDYFVAFDFIKKDGQAAANTQLRHEPGDVLVPSLYKKR | soluble |
| GPGSMLRSEVLDAEVAKSVEAYSTAVTPFVERRSGLYLTKFEVARIIGERAKQIASGAAMSLPGTGSGLDSVETAERCTNPRSLAVDPVMMAKYDLLQRKIRMLVRRVWPDGAVETIPVNELMVDVTMLDLQY | soluble |
| GPGSMLRVSLACRVTAARSAAPHTTSSSSSLVESVTSVFRSSRYLRHAPPRLYVTCSHDQGIPLHGCGRHMTTVLDVSREASPNAPPHTQSIYLLTSTSISDVEFKDSAAQSQVLVGLPQVQSIDAIHRFCDTYAATLSRVHHILLPGGVSPLQSSLIKQLLEHIPQARLVCNGFGHALLTNATFHDGVQRAVLENEPDAPPELLRFAALPADRVSSMADGDTVAVDVAKSEAESSAPVAARALRVVAVKSKGQQQRRREHSQTHHPAHFTNEALFYYDDVFNALFVGHTLHRLPWLPTVLTEASRELFLPMPPPLATQRPLSRPSPLLDTWRVLESCEDVVEALRRTPELERVLAGSYGELCGNVEDCIAGLESSSDALERLRSRLARRLTTDTSRDVHRWSTALLKRIVHEVVCTQKASEPTSSEVQEAFLCWARTDGEWGRLSTCLAHAAMVLPPSTETGEADGASSSAADSFAAHDSVPAAGATAAGESAAPEALQGTHGVELLVAVFNRKGLQGLIRTVQRETIDVQVFLAMSEEDLKKVFKATFGITKRLMLLQDELRKNL | not soluble |
| GPGSMMEATERRRKRERNERNDERRDDCEVLAKTDEKRTIVEELFQRLQSLDHTHMELEARLCRRAEVSDKSGSTSSEREWKGRRARKTRTEVMPGVAEEDYKRIEEFCLDKGKEGSVTRSTTRDVSFGQWRYTYTSGKPSECIACIRKERLFVLDVPVPSGAYDIRFSACTEITGELPSPNFAPTRGYTRHKDRLSVTDGLFRYDLTRVRDKHTTGYEVEVEFLLKDNDEKKITDSHVEELVGRALSLATLTASEG | soluble |

— the DeepSol protein solubility set
